# Values quoted from earlier work in patent US20120225099A1, “COMPOSITIONS FOR AND METHODS OF […] CYCLASE C” (Thomas Jefferson University, priority 2009, published 2012).
# Ends that are not written are not given here.
# Molecular target: guanylate cyclase (ST receptors) (Homo sapiens, UniProt P25092)
# Conditions: relative to native ST; about
# guanylate cyclase (ST receptors), sequence (P25092 24-1073): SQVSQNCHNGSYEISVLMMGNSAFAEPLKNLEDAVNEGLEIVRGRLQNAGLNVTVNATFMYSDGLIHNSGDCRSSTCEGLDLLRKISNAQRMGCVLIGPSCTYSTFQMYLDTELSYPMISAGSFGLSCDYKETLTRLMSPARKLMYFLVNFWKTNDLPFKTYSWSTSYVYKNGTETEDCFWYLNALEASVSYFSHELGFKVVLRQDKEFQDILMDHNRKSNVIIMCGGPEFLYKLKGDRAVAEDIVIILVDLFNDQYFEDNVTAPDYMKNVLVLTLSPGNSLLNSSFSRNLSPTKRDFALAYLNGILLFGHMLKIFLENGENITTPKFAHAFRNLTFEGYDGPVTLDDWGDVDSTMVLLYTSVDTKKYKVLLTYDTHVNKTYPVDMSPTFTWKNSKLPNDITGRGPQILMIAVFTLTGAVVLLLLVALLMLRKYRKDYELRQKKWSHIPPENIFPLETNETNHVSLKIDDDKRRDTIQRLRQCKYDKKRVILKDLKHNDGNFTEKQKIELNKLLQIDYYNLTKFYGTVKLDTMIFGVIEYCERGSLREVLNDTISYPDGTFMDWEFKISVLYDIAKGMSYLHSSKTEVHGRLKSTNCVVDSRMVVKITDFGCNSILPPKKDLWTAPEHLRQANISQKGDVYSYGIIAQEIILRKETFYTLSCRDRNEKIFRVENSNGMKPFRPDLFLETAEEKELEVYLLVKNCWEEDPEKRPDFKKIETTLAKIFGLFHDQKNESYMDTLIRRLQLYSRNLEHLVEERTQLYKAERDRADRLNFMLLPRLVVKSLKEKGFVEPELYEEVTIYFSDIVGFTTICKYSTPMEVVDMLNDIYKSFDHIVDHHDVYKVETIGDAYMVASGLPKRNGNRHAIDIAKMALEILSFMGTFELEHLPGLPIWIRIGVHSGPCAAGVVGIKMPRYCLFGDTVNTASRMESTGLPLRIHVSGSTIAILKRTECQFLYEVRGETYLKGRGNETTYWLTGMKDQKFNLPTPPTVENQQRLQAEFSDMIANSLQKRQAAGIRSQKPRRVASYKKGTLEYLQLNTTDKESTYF
sequence,measurement,value
"PNTCEICAYAACTGC (cysteine pairing not given here) [Guanylin, 15 amino acid peptide identified in mammalian intestine; native GCC ligand]",activates guanylate cyclase at a level less than native ST,10- to 100 fold
